“Also recorded” adds a separate entry of the source.
Key:
SWEET1 [1] = target: T1, SWEET1 (Arabidopsis thaliana, UniProt Q8L9J7); assay: Inhibition of SWEET1-mediated glucose uptake in yeast EBY4000 by competing sugars; type: cell-based; set-up: SWEET1, SWEET8 and OsSWEET11 ORFs were amplified by RT-PCR using specific primers from Arabidopsis and rice, respectively; conditions: 5 mM D-glucose; competitor at 10-fold excess (50 mM)
T1 sequence (Q8L9J7 1-247): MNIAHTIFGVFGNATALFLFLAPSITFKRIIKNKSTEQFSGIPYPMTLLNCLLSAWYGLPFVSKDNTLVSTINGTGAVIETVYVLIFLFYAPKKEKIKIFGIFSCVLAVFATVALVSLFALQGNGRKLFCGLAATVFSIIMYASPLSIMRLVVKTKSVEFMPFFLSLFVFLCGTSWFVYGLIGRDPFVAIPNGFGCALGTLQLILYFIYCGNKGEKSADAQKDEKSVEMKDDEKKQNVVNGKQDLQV
Description: Competitors were added at 10-fold excess (final concentration 50 mM). Relative activity was normalized to D-glucose uptake rate [100%]. Data are mean±S.D.
Yeast uptake. Yeast cells were grown in SD medium supplemented 2% maltose and auxotrophic markers. Cells were harvested at OD600 0.5-0.7 by centrifugation, and washed twice in ice-cold distilled water. Cell pellets were weighed after the supernatant had been removed. Cells were resuspended 5-10% (w/v) in 40 mM potassium phosphate buffer, pH 6.0. Cells were pre-incubated in potassium phosphate buffer for 5 min at 30° C. For each reaction, 330 μl pre-warmed buffer containing 20 mM glucose (0.55 μCi D-[U-^14C] glucose; 590 KBq/μmol, Amersham Pharmacia Biotech Inc.) was added to an equal volume of cells. 120 μl aliquot were withdrawn and transferred to the ice-cold water. Cells were harvested by vacuum filtration onto a glassfiber filters (GF/C, Whatman), and washed twice in 10 ml ice-cold water. Filters were transferred to scintillation vials containing 5 ml of Ultima Gold XR Scintillator liquid (Perkin Elmer). Radioactivity taken up by the cells was measured by liquid scintillation spectrometry. To determine substrate specificity for SWEET1 compared to D-glucose, a ten-fold excess of competing sugar species was used. To determine the pH-dependence of SWEET1 activity, 40 mM potassium phosphate uptake buffer at specified pH was used. […]

SWEET1 [2] = target: T1, SWEET1; assay: FRET glucose sensor FLIPglu600μΔ13V co-transfected with SWEET1 in HEK293T cells, cytochalasin B; type: cell-based; set-up: SWEET1, SWEET8 and OsSWEET11 ORFs were amplified by RT-PCR using specific primers from Arabidopsis and rice, respectively; expressed in transfected cells; host or cells: HEK293T; conditions: 20 μM cytochalasin B
Description: Similar results were obtained for several Arabidopsis paralogs of this gene family.
FRET analysis. Cell culture, transfection, image acquisition and FRET analysis were performed as described previously.
To identify novel glucose transporters from the reference plant Arabidopsis, genes encoding uncharacterized polytopic membrane proteins from the plant membrane protein database Aramemnon, available on the internet at “aramemnon.botanik.uni-koeln.de”,—were screened using a mammalian expression system. Candidate genes were coexpressed with a high-sensitivity FRET glucose sensor (i.e. FLIPglu600μΔ13V) in human embryonic kidney HEK293T cells, which are characterized by low endogenous glucose uptake activity. […] To determine whether SWEET1 can also mediate efflux from the cytosol, we expressed the FRET glucose sensor FLIPglu600μΔ13V^ER in the lumen of the endoplasmic reticulum (ER; FIG. 9B). Topologically, uptake across the plasma membrane (PM) is initiated from the extracellular side of the carrier, while ‘export’ to the ER is initiated from the cytoplasmic side of the transporter (FIG. 9C). […] SWEET1 may thus function as a glucose uniporter, for which the direction of transport depends only on the glucose gradient across the membrane. […]

SGLT1 = target: T2, SGLT1 (Homo sapiens, UniProt P13866); assay: Coexpression with SGLT1 in Xenopus oocytes, glucose accumulation; type: cell-based; conditions: coexpressed with SGLT1
T2 construct: The ORF of SGLT1 (Invitrogen, Carlsbad, Calif.) was amplified by PCR and cloned into pCR2.1-TOPO; host or cells: Xenopus laevis oocytes injected with cRNA from pOO2
T2 sequence (P13866 1-664): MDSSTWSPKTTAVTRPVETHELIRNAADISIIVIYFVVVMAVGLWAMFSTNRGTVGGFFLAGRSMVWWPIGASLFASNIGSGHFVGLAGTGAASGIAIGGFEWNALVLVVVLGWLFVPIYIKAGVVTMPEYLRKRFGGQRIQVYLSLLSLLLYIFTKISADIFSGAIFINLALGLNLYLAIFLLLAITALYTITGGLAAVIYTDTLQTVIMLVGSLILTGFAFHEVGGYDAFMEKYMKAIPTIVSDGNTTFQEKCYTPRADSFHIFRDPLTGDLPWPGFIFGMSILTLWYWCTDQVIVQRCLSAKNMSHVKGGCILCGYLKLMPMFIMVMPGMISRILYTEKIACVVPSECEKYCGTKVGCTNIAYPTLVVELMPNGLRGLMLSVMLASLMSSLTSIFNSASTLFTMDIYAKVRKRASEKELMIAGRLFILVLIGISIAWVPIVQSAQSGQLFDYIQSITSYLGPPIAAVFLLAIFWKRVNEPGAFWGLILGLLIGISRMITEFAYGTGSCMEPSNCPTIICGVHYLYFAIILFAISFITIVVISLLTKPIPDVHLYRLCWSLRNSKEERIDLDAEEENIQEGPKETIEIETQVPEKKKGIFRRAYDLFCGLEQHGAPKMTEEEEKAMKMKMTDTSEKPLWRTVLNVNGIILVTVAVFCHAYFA
Text: Data are mean±SE, n=7. Inset indicates concentrative uptake of glucose by SGLT 1 and glucose efflux (‘leak’) caused by OsSWEET11.
All experiments were repeated independently at least 6 times. Error bars are means±SD.
Human SGLT1 sodium glucose cotransporter (“S”) which has been previously shown to be a secondary active glucose importer. SGLT1 is […] expressed in Xenopus oocytes and can mediate uptake of 14C labelled glucose into the oocyte. When RAG1AP1 (“R”) is coexpressed, less uptake is seen in the oocytes. This is compatible with a glucose ‘leak’ due to RAG1AP1 activity that prevents high accumulation of glucose in the SGLT1 expressing cells.
(§1) Tracer uptake in Xenopus oocytes. The assay was performed with modification as described in Detaille et al. Two days after injection, groups of 7 to 16 oocytes were transferred into tubes containing 200 μL MBS and 1 mM D-glucose (4 μCi/ml D-[^14C(U)]-glucose; 319 mCi/mmol, PerkinElmer). After incubation at 20° C. for one hour, and the cells were washed by adding 1 ml ice-cold MBS. Incubation was stopped by adding ice-cold MBS buffer. The ooctyes were washed three times in ice-cold MBS buffer. The cells were solubilized with 100 μl 1% (w/v) SDS, and measured individually.
The ORF of SGLT1 (Invitrogen, Carlsbad, Calif.) was amplified by PCR and cloned into pCR2.1-TOPO (Invitrogen). […]

[3] = 14C glucose uptake data for C. elegans homologs (FIG. 42); type: cell-based; conditions: 1 mM and 10 mM glucose
Text: FIGS. 42A and 42B show the 14C glucose uptake data for five of the C. elegans homologs.
At least 3, 4 nd 5 are active. (code for names of C elegans genes:Ce1: C06G8.1; Ce2: K06A4.4; Ce3: Y39A1A.8; Ce4: K11D12.5; Ce5: K02D7.5; (worm mutants of Ce5: K02D7.5 show increased fat accumulation, consistent with reduced efflux of glucose from these cells).

Xenopus oocytes [4] = assay: Tracer [14C]-glucose uptake in Xenopus oocytes; type: cell-based, Xenopus laevis; conditions: 1 mM D-glucose, 1 h
Description: Xenopus oocytes isolation and RNA injection. After linearization of the pOO2 plasmids with MluI, capped cRNAs were synthesized in vitro by SP6 RNA polymerase using mMESSAGE mMACHINE kit (Ambion, Inc., Austin, Tex.). Xenopus laevis oocytes were kindly provided by M. Goodman (Stanford University). Microinjection was carried out as described by Ballatori et al.. 25 ng to 50 ng of each cRNA was injected into healthy-looking oocytes (RNAse-free water was used as control). The injected oocytes were then maintained at 18° C. in modified Barth's saline (MBS: (in mM) 88 NaCl, 1 KCl, 2.4 NaHCO3, 0.82 MgSO4, 0.33 Ca(NO3)2, 0.41 CaCl2, and 20 HEPES-Tris, pH 7.5) with 100 μM gentamycin, 100 U/ml penicillin and 100 μM streptomycin solution for 2-3 d. The incubation buffer was changed once per day.
as §1, with “individually. […]” for “individually.”

Xenopus oocytes [5] = assay: Tracer efflux assay in Xenopus oocytes injected with [14C]-glucose; type: cell-based, Xenopus laevis; conditions: S.E., n>7
Description: 50 nl of 10 mM radiolabeled glucose (0.18 μCi/μl) were injected and radiotracer efflux was measured over time. Data are mean±SE (n>10 cells).
Tracer efflux assay in Xenopus oocytes. Efflux was measured essentially as described. Three days after cRNA injection, oocytes were injected with 50 nl solution containing 10 mM D-glucose with 0.18 μCi/μl D-[^14C(U)]-glucose. Cells were immediately washed once in MBS. At defined time points, the reaction buffer (950 μl) was removed for scintillation counting and replaced with fresh medium. Finally, the oocytes were solubilized with 1% SDS and analyzed for radioactivity.
The ORF of SGLT1 (Invitrogen, Carlsbad, Calif.) was amplified by PCR and cloned into pCR2.1-TOPO (Invitrogen). The SGLT1 ORF was excised with EcoRI/XhoI and cloned into the corresponding sites in pOO2. The splice variant RAG1AP1-1 in pDNR-LIB (Clone ID: 4076256, Open Biosystems, Huntsville, Ala.) was restricted with EcoRI/XhoI and cloned into pOO2. RAG1AP1-2 in pCMV-SPORT6 (Clone ID: 3896154, Open Biosystems, Huntsville, Ala.) was transferred into the pOO2-GW (D. Loqué, unpublished) by in vitro LR recombination (Gateway). RAG1AP1-3aa was mutated to Y216A, L218A, L219A (putative internalization motifs) by site-directed mutagenesis and cloned by in vitro BP recombination in pDONR221-f1 and further mobilized into pOO2-GW by LR reaction. […]

## CO[C@@H]([C@H](O)[C@H](O)CO)[C@@H](O)C=O [3-O-methylglucose]
SWEET1 [1]
  inhibition of SWEET1-mediated glucose uptake by competitor sugar: marginally inhibited

## C=C1[C@@H](C)[C@H]2[C@H](Cc3ccccc3)NC(=O)[C@]23OC(=O)/C=C/[C@H](O)CCC[C@@H](C)C/C=C/[C@H]3[C@@H]1O [cytochalasin B]
SWEET1 [2]
  effect of cytochalasin B on SWEET1 (GLUE1)-mediated glucose uptake: insensitive; also recorded: did not affect; also recorded: insensitivity

B1: CeSWEET1: C. elegans SWEET homolog (protein, UniProt O45102 1-299, looked up)
Sugar transporter SWEET1: MLEVVLQVLSISAITTTIALFFCGIPICMQIRRQGAVGDISGVPFLMGVLGGSFWLRYGLLKMDYVMIIVNVVGVACMAFYCVFFLIYSLPKKTFTCQLILVTSTIGGMVLWIALKPNLDYLGVICMTFNIMNFGAPLAGLGVVLKNREVSTLPLPMCVANFLVSSQWCLYGNLVSDIYIIIPNGIGMFLAIVQLALFVVLPIRENEKSPLEKLASWFTGRDSKVKDLERGDCIVSSPPSSPQKVPNETRSDVEDKFDKLMAETSSTIPSDSRRGSMGSPPSYKSRSSSDPDLSSIQSP
SGLT1
  effect of coexpression on SGLT1-mediated glucose accumulation in oocytes: counteract secondary active glucose accumulation
[3]
  14C glucose uptake activity: active
Xenopus oocytes [4]
  [14C]-glucose uptake into Xenopus oocytes: mediates glucose uptake; also recorded: weak, but significant glucose uptake

B2: RAG1AP1: human homolog of the SWEET sugar transporters (SLC50) (protein)
chain: MEAGGFLDSLIYGACVVFTLGMFSAGLSDLRHMRMTRSVDNVQFLPFLTTEVNNLGWLSYGALKGDGILIVVNTVGAALQTLYILAYLHYCPRKRVVLLQTATLLGVLLLGYGYFWLLVPNPEARLQQLGLFCSVFTISMYLSPLADLAKVIQTKSTQCLSYPLTIATLLTSASWCLYGFRLRDPYIMVSNFPGIVTSFIRFWLFWKYPQEQDRNYWLLQT
Xenopus oocytes [5]
  % glucose released within 2 min: 5.27±0.29%
SGLT1
  effect of coexpression on SGLT1-mediated glucose accumulation in oocytes: less uptake; also recorded: counteract secondary active glucose accumulation; also recorded: counteracted SGLT1-mediated glucose accumulation
Xenopus oocytes [4]
  [14C]-glucose uptake into Xenopus oocytes: unable to mediate glucose accumulation
